Positions count from the first letter of the chain named.
B1: HA-Tnik(WT), full length human Tnik isoform 1 with N-terminal HA epitope tag (protein)
chain: AYPYDVPDYAMASDSPARSLDEIDLSALRDPAGIFELVELVGNGTYGQVYKGRHVKTGQLAAIKVMDVTGDEEEEIKQEINMLKKYSHHRNIATYYGAFIKKNPPGMDDQLWLVMEFCGAGSVTDLIKNTKGNTLKEEWIAYICREILRGLSHLHQHKVIHRDIKGQNVLLTENAEVKLVDFGVSAQLDRTVGRRNTFIGTPYWMAPEVIACDENPDATYDFKSDLWSLGITAIEMAEGAPPLCDMHPMRALFLIPRNPAPRLKSKKWSKKFQSFIESCLVKNHSQRPATEQLMKHPFIRDQPNERQVRIQLKDHIDRTKKKRGEKDETEYEYSGSEEEEEENDSGEPSSILNLPGESTLRRDFLRLQLANKERSEALRRQQLEQQQRENEEHKRQLLAERQKRIEEQKEQRRRLEEQQRREKELRKQQEREQRRHYEEQMRREEERRRAEHEQEYIRRQLEEEQRQLEILQQQLLHEQALLLEYKRKQLEEQRQAERLQRQLKQERDYLVSLQHQRQEQRPVEKKPLYHYKEGMSPSEKPAWAKEVEERSRLNRQSSPAMPHKVANRISDPNLPPRSESFSISGVQPARTPPMLRPVDPQIPHLVAVKSQGPALTASQSVHEQPTKGLSGFQEALNVTSHRVEMPRQNSDPTSENPPLPTRIEKFDRSSWLRQEEDIPPKVPQRTTSISPALARKNSPGNGSALGPRLGSQPIRASNPDLRRTEPILESPLQRTSSGSSSSSSTPSSQPSSQGGSQPGSQAGSSERTRVRANSKSEGSPVLPHEPAKVKPEESRDITRPSRPASYKKAIDEDLTALAKELRELRIEETNRPMKKVTDYSSSSEESESSEEEEEDGESETHDGTVAVSDIPRLIPTGAPGSNEQYNVGMVGTHGLETSHADSFSGSISREGTLMIRETSGEKKRSGHSDSNGFAGHINLPDLVQQSHSPAGTPTEGLGRVSTHSQEMDSGTEYGMGSSTKASFTPFVDPRVYQTSPTDEDEEDEESSAAALFTSELLRQEQAKLNEARKISVVNVNPTNIRPHSDTPEIRKYKKRFNSEILCAALWGVNLLVGTENGLMLLDRSGQGKVYNLINRRRFQQMDVLEGLNVLVTISGKKNKLRVYYLSWLRNRILHNDPEVEKKQGWITVGDLEGCIHYKVVKYERIKFLVIALKNAVEIYAWAPKPYHKFMAFKSFADLQHKPLLVDLTVEEGQRLKVIFGSHTGFHVIDVDSGNSYDIYIPSHIQGNITPHAIVILPKTDGMEMLVCYEDEGVYVNTYGRITKDVVLQWGEMPTSVAYIHSNQIMGWGEKAIEIRSVETGHLDGVFMHKRAQRLKFLCERNDKVFFASVRSGGSSQVFFMTLNRNSMMNW
B2: HA-Tnik(KM), kinase mutant form of Tnik with N-terminal HA epitope tag (protein)
chain: B1 chain with K64R

Molecular target: Gelsolin (Sigma)

Protein | phosphorylation of Gelsolin in an in vitro kinase assay
B1 | Wild type Tnik, but not the kinase mutant form of Tnik, phosphorylated Gelsolin in vitro
B2 | Wild type Tnik, but not the kinase mutant form of Tnik, phosphorylated Gelsolin in vitro

— patent publication US6562591
